The chains are these.
B1: His-RLIP76 GAP insert (RLIP76 GAP domain with the F-G loop of p50 RhoGAP) (domain or fragment)
chain: PNLKPIFGIPLADAVERTMMYDGIRLPAVFRECIDYVEKYGMKCEGIYRVSGIKSKVDELKAAYDREESTNLEDYEPNTVASLLKQYLRDLPENLLTKELMPRFEEACGRTTETEKVQEFQRLLKELPECNYLLISWLIVHMDHVIAKELETKMNIQNISIVLSPTVLWAKDAAITLKAINPINRVLYVFFTHVQELFGNVVLKQVMKPL
notes: Made from the pET16b RLIP GAP domain construct; also called GAP insert mutant; RLIP76 GAP insert domain
B2: RalB (natural protein, UniProt P11234 1-206, looked up)
chain: MAANKSKGQSSLALHKVIMVGSGGVGKSALTLQFMYDEFVEDYEPTKADSYRKKVVLDGEEVQIDILDTAGQEDYAAIRDNYFRSGEGFLLVFSITEHESFTATAEFREQILRVKAEEDKIPLLVVGNKSDLEERRQVPVEEARSKAEEWGVQYVETSAKTRANVDKVFFDLMREIRTKKMSENKDKNGKKSSKNKKSFKERCCLL
notes: RalB small GTPase
B3: Q61L Cdc42·[3H]GTP (natural protein)
chain: not shown
notes: Cdc42, GTPase-deficient mutant Q61L, loaded with [3H]GTP; Q61L is stated for the SPA experiments in general; also called [3H]GTP·Cdc42

In one test the target is Q61L Rac1·[3H]GTP (UniProt P63000 1-192, Q61L). Briefly: scintillation proximity assay (competition); competitor titrated into 30 nM [3H]GTP·Rac1 or [3H]GTP·Cdc42 and 30 nM GST-p50 RhoGAP immobilised on fluoromicrospheres via an anti-GST antibody; partial competition model for RLIP76 GAP and didomain, full competition for GAP insert and free p50 RhoGAP. The note with it: both partners purified. On the technique in general: Scintillation proximity formats need no separation of bound from free tracer.

The target of test [1] is T1, His-RLIP76 GAP-GBD didomain (residues 184-446) (human, UniProt Q15311 184-446).
T1 construct: Construct details are in Rajasekar et al., 2012; also called RLIP76 didomain; RhoGAP-GBD didomain; source: expressed and purified as described previously (Rajasekar et al., 2012)
T1 sequence (looked up): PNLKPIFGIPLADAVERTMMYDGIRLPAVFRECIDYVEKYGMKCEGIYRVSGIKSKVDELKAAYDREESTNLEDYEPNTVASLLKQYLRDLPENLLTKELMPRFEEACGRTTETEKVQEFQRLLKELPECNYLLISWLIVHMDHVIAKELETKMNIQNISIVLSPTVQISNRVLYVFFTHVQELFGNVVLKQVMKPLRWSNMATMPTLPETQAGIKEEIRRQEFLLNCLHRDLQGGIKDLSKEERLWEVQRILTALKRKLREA
Briefly: not stated; data not shown.

The target in another test is T2, GST-PAK1 (UniProt Q13153 1-545).
T2 construct: PAK1, positive control effector of Cdc42 and Rac1
Briefly: scintillation proximity assay (direct); GST-PAK1 on SPA beads as control binding partner; concentration of Q61L Rac1/Cdc42·[3H]GTP varied; apparent Kd. The conditions noted are these: both partners purified.

Test [2] concerns the target B1. Briefly: scintillation proximity assay (competition); competitor titrated into 30 nM [3H]GTP·Rac1 or [3H]GTP·Cdc42 and 30 nM GST-p50 RhoGAP immobilised on fluoromicrospheres via an anti-GST antibody; partial competition model for RLIP76 GAP and didomain, full competition for GAP insert and free p50 RhoGAP. The note with it: both partners purified.

Molecule B1 showed a Kd with Q61L Rac1·[3H]GTP of 1440 nM.
B2: in test [1], the Kd was around 200 nM.
Take B3: the Kd worked out at 32 nM with GST-PAK1 and 1270 nM in test [2].
